Experimental data reported in the supplement of paper PMC5998384.

Experiments:
[1] = system: HeLa Kyoto; experiment: melting temperature (median over replicates), in situ; higher = more thermally stable
[2] = system: HeLa Kyoto; experiment: solubility change mitosis vs G1/S (difference of NP-40 vs SDS log2 ratios) (log2 ratio difference); higher = more soluble in mitosis
[3] = system: HeLa Kyoto; experiment: solubility in G1/S (NP-40 vs SDS abundance) (log2 ratio); higher = more soluble; settings: cell cycle stage: G1/S
[4] = system: HeLa Kyoto; experiment: thermal stability score vs G1/S (z-score of summed log2 fold changes over temperatures); higher = more thermally stable than in G1/S
[5] = cell cycle stage: early G1 (4.5 h after nocodazole release)
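Throughout, for melting temperature (median over replicates), in situ: HeLa Kyoto cells synchronized by double thymidine or nocodazole block, proteins quantified by TMT10plex mass spectrometry, three independent biological replicates.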
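Throughout, for solubility change mitosis vs G1/S (difference of NP-40 vs SDS log2 ratios): synchronized HeLa Kyoto cells (double thymidine block for G1/S, nocodazole release for mitosis), protein amounts in NP-40 versus SDS lysates quantified by mass spectrometry, three biological replicates.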
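Throughout, for solubility in G1/S (NP-40 vs SDS abundance): HeLa Kyoto cells arrested at G1/S by double thymidine block, proteins quantified by TMT10plex mass spectrometry in mild NP-40 versus SDS extracts, three biological replicates.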
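Throughout, for thermal stability score vs G1/S (z-score of summed log2 fold changes over temperatures): synchronized HeLa Kyoto cells, proteins quantified by TMT10plex mass spectrometry, three biological replicates, mitosis taken 0.5 h after nocodazole release, G1/S directly after double thymidine block.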

Row | Sequence | melting temperature ([1]; cell cycle stage: G1/S) | melting temperature ([1]; cell cycle stage: mitosis) | solubility change mitosis (log2) [2] | solubility in G1/S (log2) [3] | thermal stability score [4, 5] | thermal stability score ([4]; cell cycle stage: mitosis)
1 | MNAGPGCEPCTKRPRWGAATTSPAASDARSFPSRQRRVLDPKDAHVQFRVPPSSPACVPGRAGQHRGSATSLVFKQKTITSWMDTKGIKTAESESLDSKENNNTRIESMMSSVQKDNFYQHNVEKLENVSQLSLDKSPTEKSTQYLNQHQTAAMCKWQNEGKHTEQLLESEPQTVTLVPEQFSNANIDRSPQNDDHSDTDSEENRDNQQFLTTVKLANAKQTTEDEQAREAKSHQKCSKSCDPGEDCASCQQDEIDVVPESPLSDVGSEDVGTGPKNDNKLTRQESCLGNSPPFEKESEPESPMDVDNSKNSCQDSEADEETSPGFDEQEDGSSSQTANKPSRFQARDADIEFRKRYSTKGGEVRLHFQFEGGESRTGMNDLNAKLPGNISSLNVECRNSKQHGKKDSKITDHFMRLPKAEDRRKEQWETKHQRTERKIPKYVPPHLSPDKKWLGTPIEEMRRMPRCGIRLPLLRPSANHTVTIRVDLLRAGEVPKPFPTHYKDLWDNKHVKMPCSEQNLYPVEDENGERTAGSRWELIQTALLNKFTRPQNLKDAILKYNVAYSKKWDFTALIDFWDKVLEEAEAQHLYQSILPDMVKIALCLPNICTQPIPLLKQKMNHSITMSQEQIASLLANAFFCTFPRRNAKMKSEYSSYPDINFNRLFEGRSSRKPEKLKTLFCYFRRVTEKKPTGLVTFTRQSLEDFPEWERCEKPLTRLHVTYEGTIEENGQGMLQVDFANRFVGGGVTSAGLVQEEIRFLINPELIISRLFTEVLDHNECLIITGTEQYSEYTGYAETYRWSRSHEDGSERDDWQRRCTEIVAIDALHFRRYLDQFVPEKMRRELNKAYCGFLRPGVSSENLSAVATGNWGCGAFGGDARLKALIQILAAAAAERDVVYFTFGDSELMRDIYSMHIFLTERKLTVGDVYKLLLRYYNEECRNCSTPGPDIKLYPFIYHAVESCAETADHSGQRTGT [PARG] | 50.8 °C | 50 °C | -0.0937 | -0.159 | -0.493 | -0.304
2 | MDQEPVGGVERGEAVAASGAAAAAAFGESAGQMSNERGFENVELGVIGKKKKVPRRVIHFVSGETMEEYSTDEDEVDGLEKKDVLPTVDPTKLTWGPYLWFYMLRAATSTLSVCDFLGEKIASVLGISTPKYQYAIDEYYRMKKEEEEEEEENRMSEEAEKQYQQNKLQTDSIVQTDQPETVISSSFVNVNFEMEGDSEVIMESKQNPVSVPP [FAM177A1] | 54.5 °C | 56.5 °C | -0.0492 | 0.0523 | 0.512 | -0.398
3 | METFDPTELPELLKLYYRRLFPYSQYYRWLNYGGVIKNYFQHREFSFTLKDDIYIRYQSFNNQSDLEKEMQKMNPYKIDIGAVYSHRPNQHNTVKLGAFQAQEKELVFDIDMTDYDDVRRCCSSADICPKCWTLMTMAIRIIDRALKEDFGFKHRLWVYSGRRGVHCWVCDESVRKLSSAVRSGIVEYLSLVKGGQDVKKKVHLSEKIHPFIRKSINIIKKYFEEYALVNQDILENKESWDKILALVPETIHDELQQSFQKSHNSLQRWEHLKKVASRYQNNIKNDKYGPWLEWEIMLQYCFPRLDINVSKGINHLLKSPFSVHPKTGRISVPIDLQKVDQFDPFTVPTISFICRELDAISTNEEEKEENEAESDVKHRTRDYKKTSLAPYVKVFEHFLENLDKSRKGELLKKSDLQKDF [PRIM1] | 48.8 °C | 49.6 °C | -0.247 | -0.144 | 0.672 | 1.37
4 | MALQTLQSSWVTFRKILSHFPEELSLAFVYGSGVYRQAGPSSDQKNAMLDFVFTVDDPVAWHSKNLKKNWSHYSFLKVLGPKIITSIQNNYGAGVYYNSLIMCNGRLIKYGVISTNVLIEDLLNWNNLYIAGRLQKPVKIISVNEDVTLRSALDRNLKSAVTAAFLMLPESFSEEDLFIEIAGLSYSGDFRMVVGEDKTKVLNIVKPNIAHFRELYGSILQENPQVVYKSQQGWLEIDKSPEGQFTQLMTLPKTLQQQINHIMDPPGKNRDVEETLFQVAHDPDCGDVVRLGLSAIVRPSSIRQSTKGIFTAGKSFGNPCVTYLLTEWLPHSWLQCKALYLLGACEMLSFDGHKLGYCSKVQTGITAAEPGGRTMSDHWQCCWKLYCPSEFSETLPVCRVFPSYCFIYQSYRCIGLQKQQHLCSPSSSPSLRQLLPSVLVGYFCCYCHFSKW [TAMM41] | 52.6 °C | 52.8 °C | -0.163 | 0.0094 | -1.37 | -1.38
5 | MEPPSCIQDEPFPHPLEPEPGVSAQPGPGKPSDKRFRLWYVGGSCLDHRTTLPMLPWLMAEIRRRSQKPEAGGCGAPAAREVILVLSAPFLRCVPAPGAGASGGTSPSATQPNPAVFIFEHKAQHISRFIHNSHDLTYFAYLIKAQPDDPESQMACHVFRATDPSQVPDVISSIRQLSKAAMKEDAKPSKDNEDAFYNSQKFEVLYCGKVTVTHKKAPSSLIDDCMEKFSLHEQQRLKIQGEQRGPDPGEDLADLEVVVPGSPGDCLPEEADGTDTHLGLPAGASQPALTSSRVCFPERILEDSGFDEQQEFRSRCSSVTGVQRRVHEGSQKSQPRRRHASAPSHVQPSDSEKNRTMLFQVGRFEINLISPDTKSVVLEKNFKDISSCSQGIKHVDHFGFICRESPEPGLSQYICYVFQCASESLVDEVMLTLKQAFSTAAALQSAKTQIKLCEACPMHSLHKLCERIEGLYPPRAKLVIQRHLSSLTDNEQADIFERVQKMKPVSDQEENELVILHLRQLCEAKQKTHVHIGEGPSTISNSTIPENATSSGRFKLDILKNKAKRSLTSSLENIFSRGANRMRGRLGSVDSFERSNSLASEKDYSPGDSPPGTPPASPPSSAWQTFPEEDSDSPQFRRRAHTFSHPPSSTKRKLNLQDGRAQGVRSPLLRQSSSEQCSNLSSVRRMYKESNSSSSLPSLHTSFSAPSFTAPSFLKSFYQNSGRLSPQYENEIRQDTASESSDGEGRKRTSSTCSNESLSVGGTSVTPRRISWRQRIFLRVASPMNKSPSAMQQQDGLDRNELLPLSPLSPTMEEEPLVVFLSGEDDPEKIEERKKSKELRSLWRKAIHQQILLLRMEKENQKLEASRDELQSRKVKLDYEEVGACQKEVLITWDKKLLNCRAKIRCDMEDIHTLLKEGVPKSRRGEIWQFLALQYRLRHRLPNKQQPPDISYKELLKQLTAQQHAILVDLGRTFPTHPYFSVQLGPGQLSLFNLLKAYSLLDKEVGYCQGISFVAGVLLLHMSEEQAFEMLKFLMYDLGFRKQYRPDMMSLQIQMYQLSRLLHDYHRDLYNHLEENEISPSLYAAPWFLTLFASQFSLGFVARVFDIIFLQGTEVIFKVALSLLSSQETLIMECESFENIVEFLKNTLPDMNTSEMEKIITQVFEMDISKQLHAYEVEYHVLQDELQESSYSCEDSETLEKLERANSQLKRQNMDLLEKLQVAHTKIQALESNLENLLTRETKMKSLIRTLEQEKMAYQKTVEQLRKLLPADALVNCDLLLRDLNCNPNNKAKIGNKP [TBC1D4] | 51.1 °C | 50.5 °C | -0.0775 | -0.0729 | -0.833 | -0.739
6 | MEEEDESRGKTEESGEDRGDGPPDRDPTLSPSAFILRAIQQAVGSSLQGDLPNDKDGSRCHGLRWRRCRSPRSEPRSQESGGTDTATVLDMATDSFLAGLVSVLDPPDTWVPSRLDLRPGESEDMLELVAEVRIGDRDPIPLPVPSLLPRLRAWRTGKTVSPQSNSSRPTCARHLTLGTGDGGPAPPPAPSSASSSPSPSPSSSSPSPPPPPPPPAPPAPPAPRFDIYDPFHPTDEAYSPPPAPEQKYDPFEPTGSNPSSSAGTPSPEEEEEEEEEEEEEEEDEEEEEGLSQSISRISETLAGIYDDNSLSQDFPGDESPRPDAQPTQPTPAPGTPPQVDSTRADGAMRRRVFVVGTEAEACREGKVSVEVVTAGGAALPPPLLPPGDSEIEEGEIVQPEEEPRLALSLFRPGGRAARPTPAASATPTAQPLPQPPAPRAPEGDDFLSLHAESDGEGALQVDLGEPAPAPPAADSRWGGLDLRRKILTQRRERYRQRSPSPAPAPAPAAAAGPPTRKKSRRERKRSGEAKEAASSSSGTQPAPPAPASPWDSKKHRSRDRKPGSHASSSARRRSRSRSRSRSTRRRSRSTDRRRGGSRRSRSREKRRRRRRSASPPPATSSSSSSRRERHRGKHRDGGGSKKKKKRSRSRGEKRSGDGSEKAPAPAPPPSGSTSCGDRDSRRRGAVPPSIQDLTDHDLFAIKRTITVGRLDKSDPRGPSPAPASSPKREVLYDSEGLSGEERGGKSSQKDRRRSGAASSSSSSREKGSRRKALDGGDRDRDRDRDRDRDRSSKKARPPKESAPSSGPPPKPPVSSGSGSSSSSSSCSSRKVKLQSKVAVLIREGVSSTTPAKDAASAGLGSIGVKFSRDRESRSPFLKPDERAPTEMAKAAPGSTKPKKTKVKAKAGAKKTKGTKGKTKPSKTRKKVRSGGGSGGSGGQVSLKKSKADSCSQAAGTKGAEETSWSGEERAAKVPSTPPPKAAPPPPALTPDSQTVDSSCKTPEVSFLPEEATEEAGVRGGAEEEEEEEEEEEEEEEEEEQQPATTTATSTAAAAPSTAPSAGSTAGDSGAEDGPASRVSQLPTLPPPMPWNLPAGVDCTTSGVLALTALLFKMEEANLASRAKAQELIQATNQILSHRKPPSSLGMTPAPVPTSLGLPPGPSSYLLPGSLPLGGCGSTPPTPTGLAATSDKREGSSSSEGRGDTDKYLKKLHTQERAVEEVKLAIKPYYQKKDITKEEYKDILRKAVHKICHSKSGEINPVKVSNLVRAYVQRYRYFRKHGRKPGDPPGPPRPPKEPGPPDKGGPGLPLPPL [SCAF1] | 49.5 °C | 50.2 °C | 1.41 | -1.69 | -0.0585 | 1.29
7 | MTPSQVAFEIRGTLLPGEVFAICGSCDALGNWNPQNAVALLPENDTGESMLWKATIVLSRGVSVQYRYFKGYFLEPKTIGGPCQVIVHKWETHLQPRSITPLESEIIIDDGQFGIHNGVETLDSGWLTCQTEIRLRLHYSEKPPVSITKKKLKKSRFRVKLTLEGLEEDDDDRVSPTVLHKMSNSLEISLISDNEFKCRHSQPECGYGLQPDRWTEYSIQTMEPDNLELIFDFFEEDLSEHVVQGDALPGHVGTACLLSSTIAESGKSAGILTLPIMSRNSRKTIGKVRVDYIIIKPLPGYSCDMKSSFSKYWKPRIPLDVGHRGAGNSTTTAQLAKVQENTIASLRNAASHGAAFVEFDVHLSKDFVPVVYHDLTCCLTMKKKFDADPVELFEIPVKELTFDQLQLLKLTHVTALKSKDRKESVVQEENSFSENQPFPSLKMVLESLPEDVGFNIEIKWICQQRDGMWDGNLSTYFDMNLFLDIILKTVLENSGKRRIVFSSFDADICTMVRQKQNKYPILFLTQGKSEIYPELMDLRSRTTPIAMSFAQFENLLGINVHTEDLLRNPSYIQEAKAKGLVIFCWGDDTNDPENRRKLKELGVNGLIYDRIYDWMPEQPNIFQVEQLERLKQELPELKSCLCPTVSRFVPSSLCGESDIHVDANGIDNVENA [GPCPD1] | 50 °C | 50.6 °C | -0.12 | 0.0477 | -0.29 | -0.26
